Results as given in patent US20120164161A1 (AFFITECH RESEARCH, published 2012).

B1: 603 scFv (scFv, not shown: small tags and cut ends)
scFv: QVQLVQSGAEVKKPGSSVKVSCKASGGTFSSYAMSWVRQAPGQGLEWMGGIIPIFGTVNYAQKFQGRVTMTRDTSTSTVYMELSSLRSDDTAVYYCARRRGAKFDYWGQGTLVTVSSKLSGSASAPKLEEGEFSEARVSYVLTQPPSASGTPGQSVTISCSGSTSNIGSHYVVWYQQLPGTAPRLLIYRNHQRPSGVPDRLSGSKSGTSASLAIGGLRSEDEADYYCAVWDDTLSGWVFGGGTKLTVL
notes: Expressed in TG1 bacteria; also called scFv 603; antibody 603 (single chain form)
B2: IgG form of antibody 306 (defucosylated IgG1) (antibody, V domains shown)
VH: QVQLVQSGAEVKKPGSSVKVSCKASGGTFSSYAMSWVRQAPGQGLEWMGGIIPIFGTVNYAQKFQGRVTMTRDTSTSTVYMELSSLRPDDTAVYYCARRGGSYFDYWGQGTLVTVSS
VL: SYVLTQPPSASGTPGQSVTISCSGSTSNIGSHYVSWYQQLPGTAPRLLIYRNHQRPSGVPDRLSGSKSGTSASLAISGLRSEDEADYYCAVWDAKYRGWVFGGGTKLTVLG
notes: Human IgG1, lambda light chain; produced in presence of Kifunensine (defucosylated); Biotinylated via cysteines for the human serum experiment
B3: IgG form of antibody 406 (defucosylated IgG1) (antibody, V domains shown)
VH: QVQLVQSGAEVKKPGSSVKVSCKASEGTFSSYAMSWVRQAPGQGLEWMGGIIPIFGTVNYAQKFQGRVTMTRDTSTSTVYMELSSLRSDDTAVYYCARRGGSYFDYWGQGTLVTVSS
VL: SYVLTQPPSASGTPGQSVTISCSGSTSNIGSHYVSWYQQLPGTAPRLLIYRNHQRPSGVPDRLSGSKSGTSASLAISGLRSEDEADYYCAVWDAKYRGWVFGGGTKLTVLG
notes: as for B2
B4: IgG form of antibody 503 (defucosylated IgG1) (antibody, V domains shown)
VH: QVQLVQSGAEVKKPGSSVKVSCKASEGTFSSYAMSWVRQAPGQGLEWMGGIIPIFGTVNYAQKFQGRVTMTRDTSTSTVYMELSSLRSDDTAVYYCARRRGAKFDYWGQGTLVTVSS
VL: SYVLTQPPSASGTPGQSVTISCSGSTSNIGSHYVVWYQQLPGTAPRLLIYRNHQRPSGVPDRLSGSKSGTSASLAIGGLRSEDEADYYCAVWDDTLSGWVFGGGTKLTVLG
notes: as for B2

What was measured:
[1] = biological target: T1, human CC chemokine receptor 4 (CCR4) (human, UniProt P51679 1-360); assay: cell-based or functional assay
T1 sequence (looked up): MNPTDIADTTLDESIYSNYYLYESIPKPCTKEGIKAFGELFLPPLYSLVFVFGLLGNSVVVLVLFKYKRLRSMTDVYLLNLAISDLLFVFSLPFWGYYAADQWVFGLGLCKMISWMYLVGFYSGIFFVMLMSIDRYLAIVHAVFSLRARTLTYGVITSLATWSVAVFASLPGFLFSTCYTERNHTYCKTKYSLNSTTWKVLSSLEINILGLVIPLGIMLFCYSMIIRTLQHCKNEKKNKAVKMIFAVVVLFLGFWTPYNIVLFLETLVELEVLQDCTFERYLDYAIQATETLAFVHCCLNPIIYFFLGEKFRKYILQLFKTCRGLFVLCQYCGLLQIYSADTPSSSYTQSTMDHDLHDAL

[2] = biological target: T1, human CC chemokine receptor 4 (CCR4); assay: flow cytometry on DT40 cells expressing human CCR4; scFv cross-linked with mouse anti-Myc antibody, detected with RPE anti-mouse IgG; MFI (PE-signal)
Description: For the flow cytometry experiments, the cells were harvested from the culture flasks, washed 2 times with PBS, re-suspended in PBS with 0.2% BSA and 0.09% NaN3 and finally aliquoted 1×10^5 cells per well into V-shaped 96-well plates (Greiner Bio-One, Frickenhausen, Germany). Cells were centrifuged at 400×g for 5 min and then incubated at 4° C. for 60 min with different scFv dilutions.
All scFv preparations were pre-incubated with a mouse anti-myc-antibody (9E10.2, Diatec, Oslo, Norway) to cross-link scFvs prior adding to the cells and diluted 3-fold, starting at a concentration of 10 μg/ml.
After washing with PBS with 0.2% BSA and 0.09% NaN3, the cells were stained with 1 μg/ml of RPE-conjugated goat anti-mouse IgG (AbD Serotec, Duesseldorf, Germany) for 30 minutes at 4° C. The stained cells were washed, re-suspended in 200 μl PBS with 0.2% BSA and 0.09% NaN3 and transferred to a U-shaped 96-well plate (Corning, Schiphol-Rijk, The Netherlands) for acquisition on EasyCyte flow cytometer (Guava Technologies, Hayward, Calif., USA).

[3] = biological target: T1, human CC chemokine receptor 4 (CCR4); assay: cell-based or functional assay; remark: listed apart in the source
[4] = biological target: T1, human CC chemokine receptor 4 (CCR4); assay: flow cytometry on Hut78 cells (CCR4-positive); defucosylated IgG1, detected with RPE anti-human IgG; Median-PE [panel Hut78]
Description: (§1) All cells were re-suspended in PBS with 0.2% BSA and 0.09% NaN3 and finally aliquoted 1×10^5 cells per well into V-shaped 96-well plates (Greiner Bio-One, Frickenhausen, Germany). Cells were centrifuged at 400×g for 5 min and then incubated at 4° C. for 60 min with different IgG dilutions. For binding in presence of human serum, CCRF-CEM cells were incubated with different IgG-solutions at either 10% or 50% of human serum (Sigma Aldrich, St Louis, Mo., USA) at 37° C. for 60 min.

[5] = biological target: T1, human CC chemokine receptor 4 (CCR4); assay: flow cytometry competition; IgG titrated from 2.5 ug/ml against fixed biotinylated TARC; competitor biotinylated TARC
mouse CCR4 = biological target: T2, mouse CCR4 (mouse, UniProt P51680 1-360); assay: flow cytometry on transiently transfected HEK-293T/17 cells, IgG 1 ug/ml
T2 construct: whole, on cells; also called murine CCR4
T2 sequence (looked up): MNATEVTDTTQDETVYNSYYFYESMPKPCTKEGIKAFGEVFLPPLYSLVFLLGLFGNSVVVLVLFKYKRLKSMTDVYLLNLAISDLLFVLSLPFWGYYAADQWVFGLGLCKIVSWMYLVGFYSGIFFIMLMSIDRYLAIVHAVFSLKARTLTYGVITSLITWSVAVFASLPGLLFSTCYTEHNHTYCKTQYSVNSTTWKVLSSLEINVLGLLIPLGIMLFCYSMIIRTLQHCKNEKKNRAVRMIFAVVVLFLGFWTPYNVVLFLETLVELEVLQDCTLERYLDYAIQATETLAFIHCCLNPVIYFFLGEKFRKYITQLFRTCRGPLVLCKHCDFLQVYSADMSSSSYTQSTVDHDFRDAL
Description: (§2) For transient transfection, Hek293T/17 cells were seeded as 2×10^6 cells in a T75 (NUNC) flask. 48 h after seeding, the cells were transfected with Fugene (ROCHE). 40 μl Fugene and 16 μg DNA are used per T75. The cells were used for assays 48 h after transfection.
(§3) Non-transfected (CCR4 negative) cells served as a negative control. The cells were cultivated further for 48 hours under regular conditions and harvested form flasks as described above. One times 10^5 cells per well were aliquoted into V-shaped 96-well plates (Greiner Bio-One, Frikenhausen, Germany). […] The samples were then washed twice by centrifugation and re-suspension in 150 μl FACS buffer. […] The samples were washed twice as described above and re-suspended in 250 μl FACS buffer followed by transfer into a U-shaped 96-well plate (Corning, Schiphol-Rijk, Netherlands) for flow cytometry on FACSCantoII (BD Biosciences, San Jose, Calif.).

[6] = biological target: T1, human CC chemokine receptor 4 (CCR4); assay: flow cytometry competition; IgG titrated from 5 ug/ml against fixed Alexa647 MDC-SNAP (50 nM); competitor MDC-SNAP
[7] = biological target: T1, human CC chemokine receptor 4 (CCR4); assay: flow cytometry on CCRF-CEM cells; defucosylated IgG1, detected with RPE anti-human IgG; Median-PE [panel CCRF-CEM]
Description: as §1

[8] = biological target: T3, monkey (Macaca mulatta) CCR4 (monkey (Macaca mulatta), UniProt F7GUA3 1-360); assay: flow cytometry on transiently transfected HEK-293T/17 cells, IgG 1 ug/ml (data not shown)
T3 construct: also called monkey CCR4
T3 sequence: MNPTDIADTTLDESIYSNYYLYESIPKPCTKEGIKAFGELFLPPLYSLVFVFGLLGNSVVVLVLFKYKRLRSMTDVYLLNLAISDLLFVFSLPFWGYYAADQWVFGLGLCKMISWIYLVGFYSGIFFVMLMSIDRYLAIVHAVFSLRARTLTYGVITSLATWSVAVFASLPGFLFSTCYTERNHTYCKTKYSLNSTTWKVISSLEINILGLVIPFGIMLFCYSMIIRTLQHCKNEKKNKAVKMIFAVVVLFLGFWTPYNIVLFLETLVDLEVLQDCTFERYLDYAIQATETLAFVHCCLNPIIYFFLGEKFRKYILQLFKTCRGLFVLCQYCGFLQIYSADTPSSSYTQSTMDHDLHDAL
Description: as §2, §3

[9] = biological target: T1, human CC chemokine receptor 4 (CCR4); assay: cell-based or functional assay; remark: listed apart in the source
[10] = biological target: T1, human CC chemokine receptor 4 (CCR4); assay: cell-based or functional assay; remark: listed apart in the source
[11] = biological target: T1, human CC chemokine receptor 4 (CCR4); assay: cell-based or functional assay; remark: listed apart in the source

| Binder | IC50 of inhibition of TARC-mediated Ca-Flux in CCRF-CEM cells [1] | EC50 (read off the curve) [2] | Inhibition of CCL17/TARC-induced migration of CCRF-CEM cells, IC50 [3] | Inhibition of CCL22/MDC-induced migration, Blockage of migration in % (IgG 10 µg/ml) [3] | EC50 (read off the curve) [4] | IC50 [5] | binding result (mouse CCR4) | IC50 [6] | EC50 (read off the curve) [7] | binding result [8] | ADCC on CCRF-CEM cells with human PBMCs, EC50 [9] | ADCC on CCRF-CEM cells, Max. Killing (%; nM IgG) [9] | ADCC on L-428 cells with human PBMCs, EC50 [9] | ADCC on L-428 cells, Max. Killing (%; nM IgG) [9] | Inhibition of MDC (Ca-Flux), Blockage of signaling in % at 10 µg/ml IgG [10] | Inhibition of TARC (Ca-Flux), IC50 [10] | IC50 of inhibition of CCL17/TARC-induced invasion of 786-O cells, CCL17/TARC 25 nM [11] | IC50 of inhibition of CCL17/TARC-induced invasion of 786-O cells, CCL17/TARC 125 nM [11] |
| --- | --- | --- | --- | --- | --- | --- | --- | --- | --- | --- | --- | --- | --- | --- | --- | --- | --- | --- |
| B1 | 0.002 nM | ~0.3 µg/mL |  |  |  |  |  |  |  |  |  |  |  |  |  |  |  |  |
| B2 |  |  | 0.158 nM | 50% | ~0.06 nM | 0.51 nM | binds | 0.28 nM | ~0.06 nM | binds | 0.114 nM | 118 % (at 1.4 nM IgG) | 0.708 nM | 88 % (at 7 nM IgG) | 74% | 0.039 nM |  |  |
| B3 |  |  | 0.178 nM | 49% | ~0.08 nM | 0.94 nM | binds | 0.27 nM | ~0.2 nM | binds | 0.0999 nM | 121 % (at 1.4 nM IgG) | 0.704 nM | 78 % (at 7 nM IgG) | 74% | 0.028 nM |  |  |
| B4 |  |  | 0.039 nM | 39% | ~0.05 nM | 0.87 nM | binds | 0.11 nM | ~0.02 nM | binds | 0.0053 nM | 108 % (at 1.4 nM IgG) | 0.233 nM | 93 % (at 7 nM IgG) | 64% | 0.013 nM | 0.12 µg/mL | 1.33 µg/mL |
